Stoichiometry N data for two substances are collected here from article doi:10.1101/2021.01.25.428026.

A word on the stoichiometry N: it is the number of molecules, sites or subunits per partner or assembly.

Assay [1] deals with recombinant DJ-1 C46A mutant (human) (UniProt Q99497). The assay can be described thus: non-reducing SDS-PAGE.
The target in assay [2] is recombinant DJ-1 C53A mutant (human) (UniProt Q99497). The assay can be described thus: non-reducing SDS-PAGE.

As to “recombinant DJ-1 C46A mutant (from UniProt Q99497 1-189) (natural protein)”, the stoichiometry N in assay [1] is 3.

For the substance “recombinant DJ-1 C53A mutant (from UniProt Q99497 1-189) (natural protein)”, the stoichiometry N in assay [2] was determined as 3.
